B1: β-lactamase inhibitory protein (BLIP), wild type (natural protein)
chain: AGVMTGAKFTQIQFGMTRQQVLDIAGAENCETGGSFGDSIHCRGHAAGDYYAYATFGFTSAAADAKVDSKSQEKLLAPSAPTLTLAKFNQVTVGMTRAQVLATVGQGSCTTWSEYYPAYPSTAGVTLSLSCFDVDGYSSTGFYRGSAHLWFTDGVLQGKRQWDLV
notes: No removal of the His tag is described; source: E. coli RB791, plasmid pGR32, purified (Co2+ Talon column, gel filtration)

How the values were obtained:
Test in all cases: enzyme inhibition assay (nitrocefin hydrolysis, Ki by fit to the Morrison equation); increasing concentrations of BLIP incubated with β-lactamase (0.05-0.6 nM) for 20 min, then nitrocefin added; initial velocity at 482 nm; 50 mM sodium phosphate pH 7.0, 100 μg/ml BSA
[1] = biological target: CTX-M-15 G240D β-lactamase (Klebsiella pneumoniae)
[2] = biological target: CTX-M-15 β-lactamase, wild type (Klebsiella pneumoniae)
[3] = biological target: CTX-M-15 N106S β-lactamase (Klebsiella pneumoniae)
[4] = biological target: CTX-M-14 N106S β-lactamase
[5] = biological target: T1, CTX-M-14 β-lactamase, wild type (UniProt Q9L5C7 29-291); settings: both partners purified
T1 construct: also called CTX-M-14 wild type; source: E. coli BL21(DE3), pET28a, purified (Co2+ Talon, TEV cleavage, Ni2+ Sepharose); not shown: His6, N-terminal, cleaved

| Molecule | Ki [1] [nM] | Ki [2] [nM] | Ki [3] [nM] | Ki [4] [nM] | Ki [5] [nM] |
| --- | --- | --- | --- | --- | --- |
| β-lactamase inhibitory protein (BLIP), wild type (from UniProt P35804) (natural protein) | 5 | 2.9 | 0.35 | 2.1 | – |
| B1 | – | – | – | – | 330 |

From paper PMC9640584, “An active site loop toggles between conformations to control antibiotic hydrolysis and inhibition potency for CTX-M β-lactamase drug-resistance enzymes” (Nature Communications, 2022)
